Reference: paper PMC10227007

Tests used:
[1] = target: MYC-OsSERL2 (overexpression line MYC-OsSERL2-OE1) (Oryza sativa japonica cv. Zhonghua 11 (ZH11)); experiment: co-IP; seedlings of COG1-HA-L1/MYC-OsSERL2-OE1 treated at 4 °C for 0, 24 and 48 h; total protein adjusted to equivalent levels of COG1-HA; precipitated with Anti-c-Myc Magnetic Beads, COG1-HA band measured by Image J (0 h = 1.0)
[2] = target: OsSERL2-MYC-cCFP (Oryza sativa japonica cv. Zhonghua 11 (ZH11)); experiment: split reporter (BiFC, NanoBiT); BiFC in rice protoplasts, nVenus and cCFP fusions co-expressed, YFP fluorescence by confocal microscopy (Leica TCS SP5); in one experiment the protoplasts were kept at 28 °C or 4 °C for 24 h and the intensity measured by Image J

relative density of the co-precipitated COG1-HA band after 24 h at 4 °C, against 0 h (1.0) (relative to 0 h (1.0)) [1] | relative density of the co-precipitated COG1-HA band after 48 h at 4 °C, against 0 h (1.0) (relative to 0 h (1.0)) [1] | BiFC fluorescence intensity at 4 °C for 24 h, relative to 28 °C (1.0) (relative to 28 °C (1.0)) [2] | Substance
4.7 | 5.8 |  | COG1-HA (from the COG1::COG1-HA transgene, line COG1-HA-L1) (receptor)
 |  | 4.1 | COG1-HA-nVenus (receptor)
